{"source": "paper PMC9311411", "about": "“A Morphing [4Fe‐3S‐nO]‐Cluster within a Carbon Monoxide Dehydrogenase Scaffold” (Angewandte Chemie (International Ed. in English), 2022)", "proteins": {"B1": {"name": "CooS‐V Ch (Carboxydothermus hydrogenoformans Z-2901) (protein)", "chain": "MATKTSIHPSVNELYQRLAEDQLSNCFDRFDPQEKIRCNYCELGVSCQLCSNGPCRINEKVGATLGVCGINADGMAMRYMLLRNVMGTSTYTYHAYEAYKTLKMTALGNTPFTITDKDKLYQMAKDLELNTEGKPEDVAVRLSDFLIWELYRDYDEPGKMIEVYAPLKRKEVWRKLGIYPAGPLHELKDAAASCLTNVDGDYVSLATKGLRLGLSCIYGAQIGLELVQDILFGTGMPHEMDVDLGIFDADYINIVFNGHEPFVGVALILAAKEAVNQDKAKAAGAKSLRIYGSIESGQEVVQRFQKDEVFRGLTGNWLTIEPMLATGAVDVLAMDMNCSPPNLGPLAEKYGATLVSVSRLVRFPGIHHFLDYKPSEVREIAQKIIDIAVDSFKNKRHGKITPKIPANIQKAITGFTPEAILKALGGSINPLIEVIKAGKIKGAVGLINCTTLKNGPQDYVTVNLAKELIKRDILILSGGCGNHALEVAGLCNLDAINLAGPGLSEVCRNLNIPPVLSFGTCTDTGRISLVVTALANALNVDTADLPVAVTAPMYMEQKATIDALFALAYGLYTHVAPDPPVMGAPNLVKLLTRDLPSITGGRIAVGSDPVKVADDILAHINDRRAKLGI", "notes": "full length, 629 residues; homodimer, apparent 118 kDa; [2Fe-2S], [4Fe-4S] and Fe/S/O hybrid cluster, no Ni"}}, "substrate": "NO", "test": "reoxidation of reduced methyl viologen", "format": "biochemical, Carboxydothermus hydrogenoformans", "settings": "0-100 mM NH2OH; reduced methyl viologen as artificial electron donor; two-electron reduction to ammonia and water", "text": "reoxidation of reduced methyl viologen on CooS‐V Ch | hyperbolic dependency on the NH2OH concentration (Figure S2‐C)"}
{"protein": "B1", "values": [{"measurement": "Km", "value": "7.6 ± 2.0", "unit": "mM"}, {"measurement": "kcat", "value": 0.13, "unit": "s–1"}]}
